Measured values published in patent publication US20140178332A1 (published 2014).

Target: T1, recombinant purified mouse IL-12 (Peprotech) (mouse, UniProt P43432 23-335; P43431 23-215)
T1 construct: Bought reagent; also called mu IL-12; murine IL-12
T1 sequence (looked up) 1: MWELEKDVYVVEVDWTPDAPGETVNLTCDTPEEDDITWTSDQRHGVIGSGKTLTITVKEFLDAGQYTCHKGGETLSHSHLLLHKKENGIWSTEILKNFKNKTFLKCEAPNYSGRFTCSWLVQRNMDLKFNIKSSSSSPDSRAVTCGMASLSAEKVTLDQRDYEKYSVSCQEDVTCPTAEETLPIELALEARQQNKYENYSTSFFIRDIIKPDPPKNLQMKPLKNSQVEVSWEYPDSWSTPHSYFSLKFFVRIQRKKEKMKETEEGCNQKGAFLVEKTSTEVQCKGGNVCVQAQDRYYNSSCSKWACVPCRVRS
T1 sequence (looked up) 2: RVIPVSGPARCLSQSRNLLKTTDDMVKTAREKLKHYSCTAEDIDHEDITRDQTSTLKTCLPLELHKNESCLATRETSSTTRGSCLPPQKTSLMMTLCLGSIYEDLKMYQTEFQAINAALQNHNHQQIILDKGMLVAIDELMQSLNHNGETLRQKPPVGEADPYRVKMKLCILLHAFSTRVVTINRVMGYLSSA
Experiment: indirect ELISA, mAb captured on anti-mouse IgG Fc, mouse IL-12 at 0.2 ug/ml
Procedure: Second, an indirect ELISA was set up by coating ELISA plates with 5 ug/ml of goat anti-mouse IgG, Fc fragment specific antibody (Pierce #31170, Rockland, Ill.). Murine anti-human IL-12 p40 mAbs were prepared at various concentrations ranging from 0.1 to 100 ng/ml in PBS containing 0.1% BSA; 50 ul of each antibody dilution was added to the coated ELISA plate and incubated for 1 hour at room temperature. Wells were washed 3 times with PBS containing 0.05% Tween-20. Recombinant purified mouse IL-12 (Preprotech) was diluted at 0.2 ug/ml in PBS containing 0.1% BSA; 50 ul/well was added and the plates incubated for 1 hour at room temperature. Wells were washed 3 times with PBS containing 0.05% Tween-20. Biotinylated anti-mouse IL-12 antibody (R&D # BAF419) was diluted at 0.2 ug/ml in PBS containing 0.1% BSA; 50 ul/well was added and the plates incubated for 1 hour at room temperature. Wells were washed 3 times with PBS containing 0.05% Tween-20. Streptavidin HRP (Pierce #21126, Rockland, Ill.) was diluted 1:20000 in PBS containing 0.1% BSA; 50 μL/well was added and the plates incubated for 1 hour at room temperature. Plates were washed 3 times with PBS containing 0.05% Tween-20. Fifty microliters of TMB solution was added to each well and incubated for 10 minutes at room temperature. […] Plates were read spectrophotmetrically at a wavelength of 450 nm.

B1: murine anti-human IL-12p40 monoclonal antibody 8E1 (antibody, V domains shown)
VH: EVKLVESGGGLVQPGGSRKLSCAASGFTFSDYGMVWVRQAPGKGLEWVASISSGSSNIYYADTVKGRFTISRDDPNNTLFLQMRSLRSEDTAMYYCARNPYWGQGTTLTVSS
VL: DIVMTQSQKFMSTSVGDRVSVTCKASQNVGTNVAWYQQKPGQSPKGLIYSASHRYSGVPDRFAGSGSGTDFTLTISNVQSEDLAEYFCQQYNSYPLTFGGGTKLELKR
notes: Murine mAb; also called biotinylated 8E1
B1: no binding (tested: 0.1 to 100 ng/ml mAb).
